Data taken from US20120058906A1 (published 2012).
Where a chain is given by its changes, count along the chain named. One block for each binder: values may come before it.

Assays:
[1] = molecular target: T1, rHuman Erythropoietin R/Fc Chimera, CF (R&D Systems Cat#963-ER) (human, UniProt P19235 25-250); assay: MSD ECL titration, Fab 0.1 nM, blank 201
T1 construct: Bought Fc chimera; also called EPO R/Fc; EPOR; Fc part of the bought chimera not given
T1 sequence: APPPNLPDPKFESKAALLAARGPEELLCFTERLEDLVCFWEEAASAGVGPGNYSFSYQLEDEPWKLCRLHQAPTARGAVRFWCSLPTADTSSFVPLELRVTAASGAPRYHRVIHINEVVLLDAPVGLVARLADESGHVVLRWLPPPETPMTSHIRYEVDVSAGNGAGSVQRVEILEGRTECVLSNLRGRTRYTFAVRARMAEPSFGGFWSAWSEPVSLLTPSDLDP

[2] = molecular target: T2, rHuman HGF R/c-MET/Fc Chimera, CF (R&D Systems Cat#358-MT/CF) (human, UniProt P08581 25-932); assay: MSD ECL titration, Fab 0.1 nM, blank 201
T2 construct: Bought Fc chimera; also called HGF R/Fc; Fc part of the bought chimera not given

[3] = molecular target: T3, rHuman P-Cadherin/Fc Chimera, CF (R&D Systems Cat#861-PC) (human, UniProt P22223 108-654); assay: MSD ECL titration, Fab 0.1 nM, blank 201
T3 construct: Bought Fc chimera; Fc part of the bought chimera not given

[4] = molecular target: T4, rHuman Notch-1/Fc Chimera, CF (R&D Systems Cat#3647-TK) (human, UniProt P46531 19-526); assay: MSD ECL titration, Fab 0.1 nM, blank 201
T4 construct: Bought Fc chimera; Fc part of the bought chimera not given

[5] = molecular target: T5, rHuman IGF-1 sR (insulin-like growth factor-1 soluble receptor), CF (R&D Systems Cat#391-GR) (human, UniProt P08069 31-932); assay: MSD ECL titration, Fab 0.1 nM, blank 201
T5 construct: Bought soluble receptor; also called IGF-R1

[6] = molecular target: T6, rHuman Notch-1/Fc Chimera, CF (R&D Systems Cat#3647-TK) (human, UniProt P46531 19-526); assay: ECL (MSD multi-spot), antigen on plate, Fab 50 nM
T6 construct: Bought Fc chimera; not shown: Fc of the bought chimera

[7] = molecular target: T7, rHuman Erythropoietin R/Fc Chimera, CF (R&D Systems Cat#963-ER) (human, UniProt P19235 25-250); assay: ECL (MSD multi-spot), antigen on plate, Fab 50 nM
T7 construct: Bought Fc chimera; also called EPO R/Fc; Epo R; not shown: Fc of the bought chimera
T7 sequence: T1 sequence

[8] = molecular target: T8, rHuman CD44/Fc Chimera, CF (R&D Systems Cat#3660-CD) (human, UniProt P16070 21-220); assay: ECL (MSD multi-spot), antigen on plate, Fab 50 nM
T8 construct: Bought Fc chimera; not shown: Fc of the bought chimera

[9] = molecular target: T9, rHuman ErbB2/Fc Chimera, CF (R&D Systems Cat#1129-ER) (human, UniProt P04626 23-652); assay: ECL (MSD multi-spot), antigen on plate, Fab 50 nM
T9 construct: Bought Fc chimera; also called HER2/neu; not shown: Fc of the bought chimera

[10] = molecular target: T10, rHuman HGF R/c-MET/Fc Chimera, CF (R&D Systems Cat#358-MT/CF) (human, UniProt P08581 25-932); assay: ECL (MSD multi-spot), antigen on plate, Fab 50 nM
T10 construct: Bought Fc chimera; also called HGF R/Fc; not shown: Fc of the bought chimera

[11] = molecular target: T11, rHuman P-Cadherin/Fc Chimera, CF (R&D Systems Cat#861-PC) (human, UniProt P22223 108-654); assay: ECL (MSD multi-spot), antigen on plate, Fab 50 nM
T11 construct: Bought Fc chimera; also called CDH3; not shown: Fc of the bought chimera

[12] = molecular target: T12, rHuman IGF-1 sR (insulin-like growth factor-1 soluble receptor), CF (R&D Systems Cat#391-GR) (human, UniProt P08069 31-932); assay: ECL (MSD multi-spot), antigen on plate, Fab 50 nM
T12 construct: Bought soluble receptor; also called IGF-R1

[13] = molecular target: T13, Recombinant Human DLL4 (R&D Systems Cat#1506-D4/CF) (human, UniProt Q9NR61 27-524); assay: ECL (MSD multi-spot), antigen on plate, Fab 50 nM
T13 construct: Bought recombinant protein; also called delta-like protein 4

[14] = molecular target: T14, rHuman EGF R/Fc Chimera, CF (R&D Systems Cat#344-ER) (human, UniProt P00533 25-645); assay: ECL (MSD multi-spot), antigen on plate, Fab 50 nM
T14 construct: Bought Fc chimera; also called ErbB-1; not shown: Fc of the bought chimera

[15] = molecular target: T15, rHuman EGF R/Fc Chimera, CF (R&D Systems Cat#344-ER) (human, UniProt P00533 25-645); assay: MSD ECL multi-spot plate, antigen immobilized; Fab 0.32 nM; blank spot 513
T15 construct: Purchased Fc chimera; not shown: Fc portion of the purchased chimera

[16] = molecular target: T16, rHuman IGF-1 sR (IGF-1 sR), CF (R&D Systems Cat#391-GR) (human, UniProt P08069 31-932); assay: as above
T16 construct: Purchased soluble receptor; also called insulin-like growth factor-1 soluble receptor; IGF-R1

[17] = molecular target: T17, rHuman HGF R/c-MET/Fc Chimera, CF (R&D Systems Cat#358-MT/CF) (human, UniProt P08581 25-932); assay: as above
T17 construct: Purchased Fc chimera; also called HGF R/Fc; not shown: Fc portion of the purchased chimera

[18] = molecular target: T18, rHuman ErbB2/Fc Chimera, CF (R&D Systems Cat#1129-ER) (human, UniProt P04626 23-652); assay: as above
T18 construct: Purchased Fc chimera; also called HER2/neu; not shown: Fc portion of the purchased chimera

[19] = molecular target: T19, rHuman CD44/Fc Chimera, CF (R&D Systems Cat#3660-CD) (human, UniProt P16070 21-220); assay: as above
T19 construct: Purchased Fc chimera; not shown: Fc portion of the purchased chimera
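Note: blank spot per well as comparator with Hit at signal to blank ratio of 4 or more.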

ECL signal [1]: 373
ECL signal [2]: 286
ECL signal [3]: 235
ECL signal [4]: 378
ECL signal [5]: 241
B1: Fab VH1-46_IGHD6-6*01_IGHJ1*01 & L6_IGKJ1*01 (Fab, V domains shown)
VH: QVQLVQSGAEVKKPGASVKVSCKASGYTFTSYYMHWVRQAPGQGLEWMGIINPSGGSTSYAQKFQGRVTMTRDTSTSTVYMELSSLRSEDTAVYYCAREEYSSSSAEYFQHWGQGTLVTVSS
VL: not shown
notes: Expressed in E. coli as Fab: heavy chain with CH1 plus Flag and His tags from Plasmid A, kappa light chain constant region from Plasmid C; also called Fab No. 1

ECL signal [6]: 279 ECL signal
ECL signal [7]: 500 ECL signal
ECL signal [8]: 271 ECL signal
ECL signal [9]: 395 ECL signal
ECL signal [10]: 135 ECL signal
ECL signal [11]: 143 ECL signal
ECL signal [12]: 240 ECL signal
ECL signal [13]: 37200 ECL signal
ECL signal [14]: 294 ECL signal
B2: Fab VH1-46_IGHD6-6*01_IGHJ1*01_S102A_S103P_S104F & L6_IGKJ1*01_S30N (Fab, V domains shown)
VH: B1 VH with S102A, S103P, S104F
VL: EIVLTQSPATLSLSPGERATLSCRASQSVNSYLAWYQQKPGQAPRLLIYDASNRATGIPARFSGSGSGTDFTLTISSLEPEDFAVYYCQQRSNWPPWTFGQGTKVEIKR
notes: Fab

ECL signal [15]: 1220 ECL signal
ECL signal [16]: 1250 ECL signal
ECL signal [17]: 1290 ECL signal
ECL signal [18]: 1480 ECL signal
ECL signal [19]: 877 ECL signal
B3: Fab VH5-51_IGHD5-18*01>3_IGHJ4*01_G100R & V3-4_IGLJ1*01 (Fab, V domains shown)
VH: EVQLVQSGAEVKKPGESLKISCKGSGYSFTSYWIGWVRQMPGKGLEWMGIIYPGDSDTRYSPSFQGQVTISADKSISTAYLQWSSLKASDTAMYYCARRRYSYGYDYFDYWGQGTLVTVSS
VL: QTVVTQEPSFSVSPGGTVTLTCGLSSGSVSTSYYPSWYQQTPGQAPRTLIYSTNTRSSGVPDRFSGSILGNKAALTITGAQADDESDYYCVLYMGSGISYVFGTGTKVTVL
notes: It was expressed as a Fab: CH1 with tags from Plasmid A and lambda CL from Plasmid E; also called Fab No. 23
